Results on 14 molecules are retold here after US20260146089A1 (published 2026).

Experiment [1] addresses T1, Jurkat (UniProt P07766 23-207). Put plainly: FACS Jurkat.
In experiment [2] the target is T1, Jurkat. Put plainly: FACS Jurkat. This is another data set of the same source.
Experiment [3] concerns the target T2, human CD3ε on the cell surface (Jurkat cells, Th1 cells) (UniProt P07766 23-207). Put plainly: FACS Jurkat.
Experiment [4] concerns the target T2, human CD3ε on the cell surface (Jurkat …). The experiment can be described thus: FACS Jurkat. This is another data set of the same source.
In experiment [5] the target is CD3ε/δ heterodimer. Put plainly: sensorgram.

Like-named read-outs stand apart in the source and are kept apart here.

B1: OKT3 (antibody, V domains shown)
VH: QVQLVQSGGGVVQPGRSLRLSCKASGYTFTRYTMHWVRQAPGKGLEWIGYINPSRGYTNYNQKFKDRFTISRDNSKNTAFLQMDSLRPEDTGVYFCARYYDDHYCLDYWGQGTPVTVSS
VL: DIQMTQSPSSLSASVGDRVTITCSASSSVSYMNWYQQTPGKAPKRWIYDTSKLASGVPSRFSGSGSGTDYTFTISSLQPEDIATYYCQQWSSNPFTFGQGTKLQITR
Take B1: the EC50 in experiment [1] and in experiment [2] was 0.55 nM throughout.

B2: 08B12 (antibody, V domains shown)
VH: EVQVVESGGGLVKPGGSLRLSCVASGFTFKKYNMNWVRQAPGKGLEWVSSISSSSTYIYYADSVKGRFTISRDNAKNSLNLQMNSLRAEDTAVYYCAGGGYFDYWGQGTLVTVSS
For B2, the EC50 in experiment [3] and in experiment [4] was 0.68 nM throughout.

B3: 13D02 (antibody, V domains shown)
VH: EVQLVESGGGLVKPGGSLRLSCAASGFTFSRFNMNWVRQTPGKGLEWVSSISSRSSYIYYADSVKGRFTISRDNAKKSLYLQMNSLRAEDTAVYYCAGGGYFDYWGQGTLVTVSS
VL: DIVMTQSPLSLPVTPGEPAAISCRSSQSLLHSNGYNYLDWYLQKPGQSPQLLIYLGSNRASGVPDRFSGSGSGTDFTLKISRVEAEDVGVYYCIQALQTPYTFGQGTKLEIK
Turning to B3, the half-maximal effective concentration (EC50) in experiment [3] and in experiment [4] was 0.59 nM throughout.

B4: 01F05 C01 (antibody, V domains shown)
VH: QVQLVQSGAEVKKPGASVKVSCKASGYTFTAYYIHWVRQAPGQGLEWMGWINPNSGGTNYAQMFQGRVTMTRDTSISAAYMELSRLSSDDTAVYYCTRGTPRYNWKSYNYGMDVWGQGTTVTVSS
VL: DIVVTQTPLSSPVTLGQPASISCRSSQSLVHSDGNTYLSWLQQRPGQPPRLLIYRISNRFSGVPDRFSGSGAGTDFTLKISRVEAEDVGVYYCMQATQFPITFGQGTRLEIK
With B4, the EC50 in experiment [3] and in experiment [4] was 1.3 nM throughout.

B5: 01B08 B01 (antibody, V domains shown)
VH: QVQLVQSGAEVKKPGASVKVSCKAAGYTFTGYYMHWVRQAPGQGLEWMGWINPYRSGTNFAQKFQDRVTMTRDTSISTAYMELSSLSSDDTAIYYCARGAGTTFYNAFDIWGQGTMVTVSS
VL: DIQMTQSPSAMSASVGDRVTITCRASQGINNYLAWFQQKPGKVPKRLIYAASSLQSGVPSRFSGSGSGTEFTLTISSLQPEDFATYYCLQHNRYPFTFGPGTKVDIK
As to B5, the EC50 in experiment [3] and in experiment [4] was 23 nM throughout.

B6: 11A10 (antibody, V domains shown)
VH: EVQLVESGRGLVQPGGSLRLSCAASGFTFSSYWMSWVRQAPGKGLEWVANIKEDGSEKYYVDSVKGRFTISRDNAKNSLYLQMNSLRAEDTAVYYCARERREGYFDYWGQGTLVTVSS
VL: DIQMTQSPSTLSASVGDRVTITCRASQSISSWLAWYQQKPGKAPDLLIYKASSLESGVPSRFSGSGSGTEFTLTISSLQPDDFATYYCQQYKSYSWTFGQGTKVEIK
As to B6, the EC50 in experiment [3] and in experiment [4] was 36 nM throughout.

B7: 12C08 antibody (antibody, V domains shown)
VH: EEQLVESGGGLVQPGGSLRFSCEVSGFTFRSYWMSWVRQAPGKGLEWVANIKEDGSEKYYVDSVKGRFTISRDNAKNSLYLQMNSLRAEDTAVYYCARERREGYFDQWGQGTLVTVSS
VL: DIQMTQSPSTLSAFVGDRVTITCRASQSIGSWLAWYQQKPGKAPDLLIYKASSLESGVPSRFSGSGSGTEFTLTISSLQPDDFATYYCQQYKSYSWTFGQGTKVEIK
On to B7, for which the EC50 in experiment [3] and in experiment [4] was 34 nM each time.

B8: 08G12 (antibody, V domains shown)
VH: EVQLVESGGGLVQSGGSLRLSCAASGFTFSRFWMTWVRQAPGKGLEWVANIKEDGSEKYYVDSVKGRFTISRDNTKNSLYLQMNSLRAEDTAVYYCARERREGYFDYWGQGTLVTVSS
VL: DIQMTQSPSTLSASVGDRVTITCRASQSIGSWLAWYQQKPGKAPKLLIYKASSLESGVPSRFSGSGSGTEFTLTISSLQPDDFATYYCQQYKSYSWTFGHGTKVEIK
Take B8: the 50% effective concentration (EC50) in experiment [3] and in experiment [4] was 20 nM in each case.

B9: 13E03 (antibody, V domains shown)
VH: EIQLVESGGGLVQPGGSLRLSCAASGFTFSSYWMSWVRQTPGKGLEWVANIKEDGSEKYHVDSVKGRYTISRDNAKNSLYLQMSSLRADDTAVYYCARERREGYFDYWGQGTVVTASS
VL: DIQMTQSPSTLSASVGDRVTITCRASQSIGRWLAWYQQKPGKAPDLLIYKASSLESGVPSRFSGGGSGTEFTLTISSLQPDDFATYYCQQYKSYSWTFGQGTKVEVK
As for B9, the koff (in general, the rate constant with which the complex falls apart) in experiment [5] was 0.00198 s⁻¹.

B10: 12C08 (antibody, V domains shown)
VH: EEQLVESGGGLVQPGGSLRFSCEVSGFTFRSYWMSWVRQAPGKGLEWVANIKEDGSEKYYVDSVKGRFTISRDNAKNSLYLQMNSLRAEDTAVYYCARERREGYFDQWGQGTLVTVSS
VL: DIQMTQSPSTLSAFVGDRVTITCRASQSIGSWLAWYQQKPGKAPDLLIYKASSLESGVPSRFSGSGSGTEFTLTISSLQPDDFATYYCQQYKSYSWTFGQGTKVEIK
In experiment [5], B10 had a koff of 0.000334 s⁻¹.

B11: 11B11 (antibody, V domains shown)
VH: EVQLVESGGGLVQPGGSLRLSCAASGFTFSSYWMTWVRQAPGKGLEWVANIKEDGSEKYYVDSVKGRFTISRDNAKNSLYVQMNSLRAEDTAIYYCARERREGYFDYWGQGTLVTVSS
VL: DIQMTQSPSILSASVGDRATITCRASQRISTWLAWFQQKPGKAPKLLIYKASSLESGVPSRFSGSGSGTEFTLTISSLQPDDFATYYCQQYKSYSWTFGQGTKVEIK
As for B11, the EC50 in experiment [3] and in experiment [4] was 48 nM throughout.

B12: 13E03 antibody (antibody, V domains shown)
VH: EIQLVESGGGLVQPGGSLRLSCAASGFTFSSYWMSWVRQTPGKGLEWVANIKEDGSEKYHVDSVKGRYTISRDNAKNSLYLQMSSLRADDTAVYYCARERREGYFDYWGQGTVVTASS
VL: DIQMTQSPSTLSASVGDRVTITCRASQSIGRWLAWYQQKPGKAPDLLIYKASSLESGVPSRFSGGGSGTEFTLTISSLQPDDFATYYCQQYKSYSWTFGQGTKVEVK
In the case of B12, the EC50 in experiment [3] and in experiment [4] was 35 nM throughout.

B13: 07B09 (antibody, V domains shown)
VH: EVQLVESGGGLVQPGGSLRLSCAASGFTFSSYWMTWVRQAPGKGLEWVANMRKDGSEKYYVDSVKGRFTISRDNAKNSLYLHMNSLRAEDTAVYYCARERSTGYFDYWGQGTLVIVSS
VL: DIQMTQSPSTLSASVGDRVTITCRASQRISTWLAWYQQKAGKAPKLLIYKASSLESGVPSRFSGSGSGTEFTLTIRSLEPDDFATYYCQQYISYTWTFGQGTKVEIK
B13: the EC50 in experiment [3] and in experiment [4] was 25 nM in each case.

B14: 06G07 A04 (antibody, V domains shown)
VH: EVQLVESGGGLVQPGGSLRLSCAASGFTFSSFWMSWVRQAPGKGLEWVANIKEDGSEKYYVDSVKGRFTISRDNAKNSLFLQMNSLRAEDTAVYYCARERRTGYFDYWGQGTLVTVSS
VL: DIQMTQSSSTLSASVGDRVTITCRASQSIGSWLAWFQQKPGKAPKLLIYKASSLESGVPSRFSGSGSGTEFTLTISSLQPDDFAIYYCQQYKSYSWTFGQGTKVEIK
As for B14, the EC50 in experiment [3] and in experiment [4] was 27 nM each time.
